Self-cleavage data for 167 variants are collected here from the RNAGym collection of RNA variant scans (doi:10.7554/elife.80360).

B1: Hammerhead Ribozyme (parent)
chain: ACCGGAUGUGCUUUCCGGUCUGAUGAGUCCGUGAGGACGAAACAG

This data set covers variants of B1. The experiment in a line: self-cleavage, relative activity (ratio to wild type); higher = more cleavage; co-transcriptional.
Turning to G4U A40C, the self-cleavage came out at 0.224.

For the variant G4U A40G, the self-cleavage amounted to 0.303. The figure for G4U A40U is 0.297; for G4C G31U it is 0.748. The figure for G4C G31C is 0.768; for G4C G31A it is 0.939. Then G4U G17A, with 0.316.

For the variant G4U G17C, the self-cleavage came out at 0.34. Take G4U G17U: the self-cleavage worked out at 0.294. As for G4U A42U, the self-cleavage is 0.307. The figure for G4U A42G is 0.336. The figure for G4U A42C is 0.265. Then G4A C11A, with 0.62; and G4A C11G, with 0.539. Regarding G4A C11U, the self-cleavage worked out at 0.389.

In the case of G4A C29G, the self-cleavage came to 0.357. Then G4A C29U, with 0.543; and G4A C29A, with 0.374; and G4U G45C, with 0.324. The figure for G4U G45U is 0.446; for G4U G45A it is 0.351. The figure for G4U C30A is 0.4; for G4U C30U it is 0.558.

G4U C30G: the self-cleavage turned out to be 0.305. For the variant G4C G33C, the self-cleavage stood at 0.742. For the variant G4C G33U, the self-cleavage was 0.837. Then G4C G33A, with 0.879; and G4C G17U, with 0.291; and G4C G17A, with 0.298. Then G4C G17C, with 0.291. Then G4A G31C, with 0.594; and G4A G31U, with 0.678. For the variant G4A G31A, the self-cleavage was determined as 0.641. The figure for G4U G8C is 0.377; for G4U G8U it is 0.933.

Take G4U G8A: the self-cleavage was 0.47. The figure for G4A G33A is 0.55. The figure for G4A G33U is 0.597; for G4A G33C it is 0.549.

In the case of G4C U12G, the self-cleavage stood at 0.599.

In the case of G4C U12C, the self-cleavage was found to be 0.513. As for G4C U12A, the self-cleavage stood at 0.766. The figure for G4A C16G is 0.977; for G4A C16A it is 0.907; for G4A C16U it is 0.781. The figure for G4U A44U is 0.33; for G4U A44G it is 0.789; for G4U A44C it is 0.401. Then G4C A44C, with 0.422. On to G4C A44G, for which the self-cleavage is 0.805. Then G4C A44U, with 0.34; and G4C A42U, with 0.297. The figure for G4C A42C is 0.296; for G4C A42G it is 0.359; for G4C U7G it is 0.768. As for G4C U7C, the self-cleavage is 0.353.

Take G4C U7A: the self-cleavage came out at 1.03. For G4A G8U, the self-cleavage is 0.696. As for G4A G8A, the self-cleavage worked out at 0.555. Then G4A G8C, with 0.46; and G4A A41G, with 0.287; and G4A A41C, with 0.34. For the variant G4A A41U, the self-cleavage came to 0.382. Consider G4C G35C, for which the self-cleavage worked out at 0.341.

Regarding G4C G35A, the self-cleavage turned out to be 0.297. For G4C G35U, the self-cleavage came to 0.426. Then G4U U7C, with 0.361.

In the case of G4U U7A, the self-cleavage came to 0.432. Regarding G4U U7G, the self-cleavage was 0.381. Consider G4A A40G, for which the self-cleavage amounted to 0.379. The figure for G4A A40C is 0.359; for G4A A40U it is 0.325.

G4A U14C: the self-cleavage came to 0.404. The figure for G4A U14A is 0.49; for G4A U14G it is 0.542. Then G4C G39A, with 0.326; and G4C G39U, with 0.293.

On to G4C G39C, for which the self-cleavage was determined as 0.244. The figure for G4A G18C is 0.333.

For the variant G4A G18A, the self-cleavage was found to be 0.372. Then G4A G18U, with 0.323; and G4C A23U, with 0.314; and G4C A23C, with 0.299. As for G4C A23G, the self-cleavage amounted to 0.225. The figure for G4C U19C is 0.297; for G4C U19A it is 0.283. Then G4C U19G, with 0.322; and G4C G22A, with 0.297; and G4C G22U, with 0.238. Then G4C G22C, with 0.241. For G4C C30A, the self-cleavage is 0.594. Then G4C C30U, with 0.703; and G4C C30G, with 0.371.

As to G4A U7G, the self-cleavage is 0.335. The figure for G4A U7C is 0.294; for G4A U7A it is 0.538. The figure for G4C A6G is 0.358; for G4C A6U it is 0.281. The figure for G4C A6C is 0.251. In the case of G4U G39C, the self-cleavage was determined as 0.266. Turning to G4U G39A, the self-cleavage was determined as 0.263. The figure for G4U G39U is 0.29.

For G4C C16G, the self-cleavage was found to be 1.35. Take G4C C16U: the self-cleavage came out at 1.39. Take G4C C16A: the self-cleavage was determined as 1.65.

Consider G4A G27A, for which the self-cleavage is 0.332. The figure for G4A G27C is 0.297; for G4A G27U it is 0.366; for G4U C43U it is 0.261. The figure for G4U C43G is 0.295; for G4U C43A it is 0.272; for G4A G10C it is 0.414. In the case of G4A G10A, the self-cleavage was 0.866. Then G4A G10U, with 0.734; and G4U G25C, with 0.339. The figure for G4U G25A is 0.25; for G4U G25U it is 0.253; for G4A U19C it is 0.276.

In the case of G4A U19G, the self-cleavage came out at 0.238. The figure for G4A U19A is 0.353; for G4A A44U it is 0.435; for G4A A44C it is 0.388. Then G4A A44G, with 0.84; and G4C C20A, with 0.244; and G4C C20U, with 0.441.

Consider G4C C20G, for which the self-cleavage turned out to be 0.266. The figure for G4C G45U is 0.4; for G4C G45A it is 0.355; for G4C G45C it is 0.4. Regarding G4U C16U, the self-cleavage was found to be 1.05. The figure for G4U C16G is 1.09.

As to G4U C16A, the self-cleavage was determined as 1.07.

With G4U A37G, the self-cleavage turned out to be 0.305. Then G4U A37C, with 0.329; and G4U A37U, with 0.286.

As to G4A G5U, the self-cleavage worked out at 0.398.

Take G4A G5A: the self-cleavage was 0.54. Then G4A G5C, with 0.365; and G4C A41G, with 0.255; and G4C A41C, with 0.316. The figure for G4C A41U is 0.267. For the variant G4A A37U, the self-cleavage was 0.378.

On to G4A A37G, for which the self-cleavage is 0.391.

Take G4A A37C: the self-cleavage amounted to 0.491. The figure for G4U C15A is 0.425.

With G4U C15G, the self-cleavage amounted to 0.436. The figure for G4U C15U is 0.523.

In the case of G4C A40C, the self-cleavage was found to be 0.352.

In the case of G4C A40U, the self-cleavage turned out to be 0.255.

With G4C A40G, the self-cleavage worked out at 0.243. For the variant G4C U9A, the self-cleavage turned out to be 0.613.

With G4C U9G, the self-cleavage worked out at 0.573. Then G4C U9C, with 0.704. Then G4A U9G, with 0.423. The figure for G4A U9A is 0.458; for G4A U9C it is 0.47. On to G4C A37G, for which the self-cleavage was determined as 0.516. In the case of G4C A37C, the self-cleavage was determined as 0.328. The figure for G4C A37U is 0.294; for G4A G22C it is 0.354; for G4A G22U it is 0.302. The figure for G4A G22A is 0.281. The figure for G4U A26G is 0.274; for G4U A26C it is 0.35. Regarding G4U A26U, the self-cleavage worked out at 0.378. The figure for G4U A23G is 0.303; for G4U A23U it is 0.333.
